Measurements taken from IntAct's records for PubMed 30179222.

B1: Nuclear pore complex protein Nup85 (Homo sapiens), Q9BW27 (parent)
chain: MEELDGEPTVTLIPGVNSKKNQMYFDWGPGEMLVCETSFNKKEKSEMVPSCPFIYIIRKDVDVYSQILRKLFNESHGIFLGLQRIDEELTGKSRKSQLVRVSKNYRSVIRACMEEMHQVAIAAKDPANGRQFSSQVSILSAMELIWNLCEILFIEVAPAGPLLLHLLDWVRLHVCEVDSLSADVLGSENPSKHDSFWNLVTILVLQGRLDEARQMLSKEADASPASAGICRIMGDLMRTMPILSPGNTQTLTELELKWQHWHEECERYLQDSTFATSPHLESLLKIMLGDEAALLEQKELLSNWYHFLVTRLLYSNPTVKPIDLHYYAQSSLDLFLGGESSPEPLDNILLAAFEFDIHQVIKECSIALSNWWFVAHLTDLLDHCKLLQSHNLYFGSNMREFLLLEYASGLFAHPSLWQLGVDYFDYCPELGRVSLELHIERIPLNTEQKALKVLRICEQRQMTEQVRSICKILAMKAVRNNRLGSALSWSIRAKDAAFATLVSDRFLRDYCERGCFSDLDLIDNLGPAMMLSDRLTFLGKYREFHRMYGEKRFADAASLLLSLMTSRIAPRSFWMTLLTDALPLLEQKQVIFSAEQTYELMRCLEDLTSRRPVHGESDTEQLQDDDIETTKVEMLRLSLARNLARAIIREGSLEGS
partner: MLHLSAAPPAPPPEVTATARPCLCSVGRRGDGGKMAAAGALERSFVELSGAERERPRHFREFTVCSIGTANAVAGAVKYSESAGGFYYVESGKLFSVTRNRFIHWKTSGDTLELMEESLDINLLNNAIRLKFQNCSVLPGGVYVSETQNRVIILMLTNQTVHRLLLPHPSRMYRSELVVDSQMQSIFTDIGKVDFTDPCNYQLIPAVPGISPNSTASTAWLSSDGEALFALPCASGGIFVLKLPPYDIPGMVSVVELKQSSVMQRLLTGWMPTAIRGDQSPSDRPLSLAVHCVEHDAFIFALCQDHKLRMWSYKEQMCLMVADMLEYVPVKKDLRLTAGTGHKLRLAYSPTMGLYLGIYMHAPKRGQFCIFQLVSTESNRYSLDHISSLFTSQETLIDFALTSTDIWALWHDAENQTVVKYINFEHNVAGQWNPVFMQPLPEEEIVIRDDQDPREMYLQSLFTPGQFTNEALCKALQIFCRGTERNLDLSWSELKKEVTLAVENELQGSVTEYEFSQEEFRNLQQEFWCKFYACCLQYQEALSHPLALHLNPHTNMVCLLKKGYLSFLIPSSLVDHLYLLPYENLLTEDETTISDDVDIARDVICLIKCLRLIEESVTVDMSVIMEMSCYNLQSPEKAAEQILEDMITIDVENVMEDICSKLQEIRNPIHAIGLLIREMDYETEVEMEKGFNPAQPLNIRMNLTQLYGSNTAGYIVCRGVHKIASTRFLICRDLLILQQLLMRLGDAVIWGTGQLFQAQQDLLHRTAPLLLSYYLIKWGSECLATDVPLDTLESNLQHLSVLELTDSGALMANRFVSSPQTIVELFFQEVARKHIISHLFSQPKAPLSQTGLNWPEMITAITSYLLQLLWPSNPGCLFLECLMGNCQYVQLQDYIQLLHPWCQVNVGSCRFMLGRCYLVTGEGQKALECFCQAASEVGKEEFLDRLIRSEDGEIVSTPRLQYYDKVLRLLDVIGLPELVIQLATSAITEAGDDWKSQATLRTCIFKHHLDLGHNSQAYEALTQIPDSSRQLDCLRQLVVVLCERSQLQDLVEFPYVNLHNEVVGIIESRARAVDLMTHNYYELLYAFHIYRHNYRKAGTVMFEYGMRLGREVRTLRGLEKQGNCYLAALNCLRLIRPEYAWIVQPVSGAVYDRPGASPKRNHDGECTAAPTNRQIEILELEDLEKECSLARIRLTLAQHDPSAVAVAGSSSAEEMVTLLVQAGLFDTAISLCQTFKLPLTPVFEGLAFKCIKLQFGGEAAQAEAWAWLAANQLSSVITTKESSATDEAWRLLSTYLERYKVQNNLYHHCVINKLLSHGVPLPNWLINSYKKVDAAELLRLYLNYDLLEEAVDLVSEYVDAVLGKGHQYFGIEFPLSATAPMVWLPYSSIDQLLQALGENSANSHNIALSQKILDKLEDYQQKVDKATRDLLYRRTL

Variants of: B1
Conditions: with nu160_human NUP160, Q12769

| Variant | effect of a mutation on the interaction |
| --- | --- |
| R645W | decreasing interaction strength |
| A581P | disrupting interaction strength |
| A477V | decreasing interaction strength |

Variants of: B1
Conditions: with nu160_human NUP160, Q12769
Remark: another data set of the same source

| Variant | effect of a mutation on the interaction |
| --- | --- |
| A477V | with no effect |
